What was measured:
Assay in all cases: cell_activity
[1] = test system: Lig3-4 (engineered I-CreI-type single-chain meganuclease); conditions: 3 of 637 clones mutated; BMS maize cells
[2] = test system: Lig3-4+ (engineered meganuclease variant); conditions: 1 of 353 clones mutated; BMS maize cells
[3] = test system: Lig3-4++ (engineered meganuclease variant); conditions: 56 of 237 clones mutated; BMS maize cells
I-CreI = target: T1, I-CreI (UniProt P05725); conditions: BMS maize cells
T1 sequence: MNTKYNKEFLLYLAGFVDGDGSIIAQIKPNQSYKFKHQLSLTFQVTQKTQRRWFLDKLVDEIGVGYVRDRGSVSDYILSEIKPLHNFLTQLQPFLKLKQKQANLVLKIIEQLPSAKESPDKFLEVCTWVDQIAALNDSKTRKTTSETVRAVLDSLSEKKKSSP

[4] = target: T2, I-SceI (maize codon-modified moI-SceI) (UniProt P03882); conditions: BMS maize cells
T2 sequence: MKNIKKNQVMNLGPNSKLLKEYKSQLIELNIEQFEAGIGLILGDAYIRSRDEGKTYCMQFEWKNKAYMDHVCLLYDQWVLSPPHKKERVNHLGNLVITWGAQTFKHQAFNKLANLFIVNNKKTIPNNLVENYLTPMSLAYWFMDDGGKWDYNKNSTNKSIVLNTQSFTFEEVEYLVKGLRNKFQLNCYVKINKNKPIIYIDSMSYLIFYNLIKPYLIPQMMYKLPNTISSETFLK

ATATACCTCACACGTACGCGTA (double strand) [LIG-1 site (near liguleless1)]
activity (% mutation rate) [1]: 0.5
activity (% mutation rate) [2]: 0.3
activity (% mutation rate) [3]: 24

Double I-CreI site
activity (% mutation rate) (I-CreI; 50 of 66 clones mutated): 76

Double I-SceI site
activity (% mutation rate) ([4]; 57 of 63 clones mutated): 90

I-CreI site
activity (% mutation rate) (I-CreI; 318 of 904 clones mutated, 0 of 34 without endonuclease): 35

I-SceI site
activity (% mutation rate) ([4]; 49 of 58 clones mutated, T-DNA replicon assay, 0 of 34 without endonuclease): 84
